Legend:
hAng-2FD-mFc F-469-L = target: T1, hAng-2FD-mFc F-469-L (Homo sapiens, UniProt O15123, F469L); test: Ang-2FD-mFc point mutant binding experiment (SPR), F-469-L; settings: F-469-L mutant captured; antibody/peptibody at 100 nM; 25° C.
T1 construct: made in house
Excerpt: To further characterize binding between hAng2 and anti-hAng2 mAbs of the invention, seven variant hAng2-FD-mFc proteins were generated, each containing a single point mutation. Amino acids selected for mutation were based on the difference in sequence between hAng-2 and hAng-1 in the region that interacts with hTie-2 (FIG. 1). In particular, amino acids within the fibrinogen-like domain (FD) of Ang-2 which are believed to interact with Tie-2 based on crystal structure analysis, but which differ from the corresponding amino acid in Ang-1, were individually mutated to the corresponding hAng-1 residue. The results of this example indicate the amino acid residues of hAng-2 with which the Ang-2 preferential binding antibodies interact.
In this experiment, each of the seven hAng-2FD-mFc mutant proteins were captured (˜147-283 RU) on an anti-mouse-Fc surface created through direct chemical coupling to a BIACORE™ chip. Then each Ang-2 antibody (or peptibody, as the case may be) at 100 nM was injected over the captured mFc-tagged hAng-2FD protein surface at a flowrate of 50 μl/min for 180 sec, and the dissociation of variant hAng2-FD-mFc and antibody was monitored in real time for 20 min at 25° C.

[1] = system: COLO 205 tumor vessel perfusion; test: Tumor perfusion by contrast-enhanced micro-ultrasound, COLO 205 tumors; format: in vivo, mice; settings: treated for 24 hrs
Procedure: To determine whether the combination of H1H685P+VEGF Trap has a greater effect on tumor vessel function than the single agents, a micro-ultrasound (VisualSonics' Vevo 770 imaging system) was used to assess changes in tumor perfusion. COLO 205 tumors were grown to ˜125 mm^3 and mice were then treated for 24 hrs with H1H685P, VEGF Trap or the combination of both agents. Following treatment, tumor vessel perfusion was determined based on contrast-enhanced micro-ultrasound 2D image acquisition and analysis of a “wash-in” curve, which represents the amount of contrast agent entering the tumor. Average (mean+/−standard deviation) tumor perfusion was calculated for each group. Percent decrease was calculated from comparison to the Fc control group.

[2] = system: advanced solid tumor malignancies; test: Ascending, multiple-dose clinical trial of intravenously administered mAb1 in patients with advanced cancer; format: in vivo
Procedure: This study was an open-label, ascending, multiple-dose study of mAb1 administered as an intravenous (IV) infusion (30 minutes) at doses of 1, 3, 6, 12 or 20 mg/kg once every 2 weeks. The study was conducted in patients with advanced solid tumor malignancies who have failed conventional therapy. The purpose of the study was to explore the safety, recommended dose (RD), pharmacokinetics (PK), pharmacodynamics (PD) and anti-tumor activity of mAb1 (also known as “H1H685P”).
Patients were screened to determine eligibility within 28 days prior to the first dose administration. Three patients were assigned to each of the five sequential cohorts (1, 3, 6, 12 or 20 mg/kg). Patients received mAb1 as a 30 minute IV infusion on Days 1 and 15 of each 4-week cycle (28 days). The dose of mAb1 was escalated until the recommended dose was determined, based on safety, tolerability, PK, PD testing and/or maximum tolerated dose (MTD). The MTD is defined as the highest dose at which less than 33% of patients experience dose-limiting toxicity (DLT) during the first cycle of therapy.
Six dose levels were planned for studying dose escalation. Starting at dose 1, a minimum of 3 patients was entered at each dose level. […] If no further cycle 1 DLT was observed, dose escalation proceeded to the next dose level. If two or more patients experienced a cycle 1 DLT, dose escalation was stopped and the previous lower dose level was expanded to 6 patients. Once the RD was determined, up to 10 additional patients were enrolled to evaluate safety and other biological/clinical effects. A separate cohort was planned for patients with hepatocellular carcinoma (HCC) where up to 10 patients were enrolled based on the eligibility criteria (listed below).
A DLT is defined by any of the following treatment-related events occurring during the first cycle (28 days) of study treatment: (1) Hematologic toxicity as evidenced by (a) Grade 3 or 4 neutropenia complicated by fever 38.5° C. or infection; (b) Grade 4 neutropenia of at least 7 days duration; (c) Grade 3 thrombocytopenia complicated by hemorrhage; or (d) Grade 4 thrombocytopenia; and/or (2) Non-hematologic toxicity as evidenced by (a) any Grade 4 non-hematologic toxicity; or (b) Grade 3 non-hematologic toxicities except fatigue, anorexia, nausea, vomiting or diarrhea that can be controlled by medication. Grade 3 laboratory changes that reflected tumor burden were not considered as DLT.
Safety was assessed throughout the study by monitoring Adverse Events and Serious Adverse Events.
For tumor assessment, a CT or MRI was performed at the screening visit (within 28 days prior to infusion) and during every even-numbered cycle (eg cycles 2, 4, 6, 8) between days 15 and 28 and when disease progression was suspected. Tumor assessment was performed according to Response Evaluation Criteria in Solid Tumors version 1.1 (RECIST version 1.1). RECIST criteria are developed to facilitate objective assessment of change in tumor burden such as tumor shrinkage and time to development of disease progression. RECIST guidelines are posted on the worldwide web at http://ctep(dot)cancer(dot)gov(slash)protocoldevelopment(slash)docs(slash)recist_guideline(dot)pdf. Tumor marker assessments were also collected, when available.
Blood samples were collected for RNA, serum cytokine testing, molecular profiling, anti-drug antibody (ADA) and serum mAb1 levels at screening and post-infusion on days 1, 2, 3, 8, 15 and 22 of cycle 1, and on day 1 of subsequent cycles. Tumor biopsies were obtained for immunohistochemistry studies for Ang-2. Results were scored as positive for Ang-2 in association with expression of endothelial cell CD31.

[3] = target: biotin-hBA2 binding to hTie-2 (Homo sapiens, UniProt O15123); test: ELISA blocking of biotinylated hBA2 binding to hTie-2-His; format: biochemical; settings: antibodies cloned onto human IgG1; NB: no blocking observed at 5 nM concentration; read-out: Biotin - hBA2 IC50
Procedure: For this experiment, human Tie-2 conjugated to a histidine tag (hTie-2-His; SEQ ID NO:526) was used in a similar fashion to the hTie-2-mFc described above. Antibody concentrations from 5 nM were serially diluted three-fold. […] An average IC50 value for each antibody was calculated based on two separate experiments.

T1 sequence (O15123 with tags, fused parts or gaps F469L): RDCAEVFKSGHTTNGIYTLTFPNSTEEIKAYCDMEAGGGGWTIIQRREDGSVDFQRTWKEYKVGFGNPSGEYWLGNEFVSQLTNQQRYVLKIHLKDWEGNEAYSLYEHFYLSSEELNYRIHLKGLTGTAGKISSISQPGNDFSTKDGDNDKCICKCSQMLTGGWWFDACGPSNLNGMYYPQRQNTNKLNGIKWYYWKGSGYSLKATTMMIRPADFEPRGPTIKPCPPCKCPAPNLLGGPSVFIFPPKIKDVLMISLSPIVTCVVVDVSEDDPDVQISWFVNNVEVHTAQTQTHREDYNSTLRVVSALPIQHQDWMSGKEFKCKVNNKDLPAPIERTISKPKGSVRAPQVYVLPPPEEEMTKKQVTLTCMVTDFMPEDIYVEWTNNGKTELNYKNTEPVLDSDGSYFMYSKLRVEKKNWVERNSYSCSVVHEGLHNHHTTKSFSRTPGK
Chain of biotin-hBA2 binding to hTie-2 (O15123 with tags, fused parts or gaps): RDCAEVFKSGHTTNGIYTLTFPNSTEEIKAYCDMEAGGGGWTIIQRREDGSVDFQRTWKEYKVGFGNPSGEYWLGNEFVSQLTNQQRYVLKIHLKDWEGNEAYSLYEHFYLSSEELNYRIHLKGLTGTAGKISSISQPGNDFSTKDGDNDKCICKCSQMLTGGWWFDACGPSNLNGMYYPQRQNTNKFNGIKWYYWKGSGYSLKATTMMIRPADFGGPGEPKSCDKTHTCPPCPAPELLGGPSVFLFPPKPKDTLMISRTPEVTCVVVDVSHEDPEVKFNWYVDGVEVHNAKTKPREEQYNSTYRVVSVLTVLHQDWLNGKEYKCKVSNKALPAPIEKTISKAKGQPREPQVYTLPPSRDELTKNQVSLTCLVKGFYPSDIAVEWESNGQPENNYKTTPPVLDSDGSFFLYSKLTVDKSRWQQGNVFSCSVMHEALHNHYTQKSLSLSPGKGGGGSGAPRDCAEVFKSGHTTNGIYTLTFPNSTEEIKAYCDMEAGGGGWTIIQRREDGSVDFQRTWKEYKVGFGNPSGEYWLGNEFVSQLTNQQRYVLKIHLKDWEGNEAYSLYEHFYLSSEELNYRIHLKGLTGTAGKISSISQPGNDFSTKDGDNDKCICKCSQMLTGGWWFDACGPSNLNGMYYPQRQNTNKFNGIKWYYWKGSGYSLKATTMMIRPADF

“H1H685P: human anti-Ang-2 antibody, HCVR/LCVR SEQ ID NOs 18/20; also referred to as mAb1 [Antibody H1H685P]” was tested, and the Kd (hAng-2FD-mFc F-469-L) was 13.8 nM, the RU (hAng-2FD-mFc F-469-L) was 101.16 RU and the “Relative Tumor Perfusion” value ([1]; mean ± SD) was 6.32 ± 2.81. The “% Decrease in Tumor Perfusion” value ([1]; vs Fc control) was 22%, the “Positive ADA detected” value ([2]; 3 mg/kg) was 1 patient and the “Confirmed sustained patient response (PR), duration” value ([2]; 1 patient with adrenocortical cancer treated at 1 mg/kg) was 16 wks. For the same substance, the “Stable disease (SD), patients evaluable for efficacy” value ([2]; 17 of 32 patients) was 53%, the “Total circulating serum Ang2 levels following treatment” value ([2]; all cohorts) was “saturated” and the “Maximum tolerated dose (MTD)” value ([2]; human, in vivo, iv) was “not reached”. For the same substance, the “Stable disease (SD), duration” value ([2]; one patient with thyroid cancer) was 46 weeks, the “Treatment-related adverse events (G½): abdominal distension” value ([2]; patients) was 11% and the “Treatment-related adverse events (G½): decreased appetite” value ([2]; patients) was 11%. For the same substance, the “Treatment-related adverse events (G½): diarrhea” value ([2]; patients) was 14%, the “Treatment-related adverse events (G½): fatigue” value ([2]; patients) was 19% and the “Treatment-related adverse events (G½): peripheral edema” value ([2]; patients) was 17%. The “≥Grade 3 TRAEs” value ([2]; patients) was “no ≥Grade 3 TRAEs”, the “Stable disease (SD), duration range” value ([2]; patients evaluable for efficacy) was 3.3-46.8 weeks and the Tolerability ([2]; patients with advanced cancer) was “generally well tolerated”. For the same substance, the “Dose-limiting toxicities (DLTs)” value ([2]; patients, 1, 3, 6, 12 and 20 mg/kg IV every 2 weeks) was “No DLTs”, the “Pharmacokinetics (PK) across all dose levels” value ([2]; patients, IV) was “linear and dose-proportional” and the IC50 [3] was 0.02 nM.
